The values below come from article PMC10786891, “Massively parallel profiling of RNA-targeting CRISPR-Cas13d”.

Positions count from the first letter of the chain named. Names may count otherwise.

The chains are these.
B1: target 1 insA 3' of 19,insA 3' of 6 (mixed)
RNA 1: CACCCGUGCAAAAAUGCAGGGGUCUAAAACUGAGCGGAUAACCUCUCUAUGG
RNA 2: GGGAAUGGAUCCACAUCUACGAAUUCGUACCAUAAGAGAGGUUAUCCAGCUCACCGAGAUCGGAAGAGCACACGU
B2: target 1 insG 3' of 14,insU 3' of 5 (mixed)
RNA 1: B1 RNA 1
RNA 2: B1 RNA 2 with A35G, G36A, A37G, G38A, A39G, A48G, G49U
B3: target 1 insU 3' of 22,insU 3' of 20 (mixed)
RNA 1: B1 RNA 1
RNA 2: GGGAAUGGAUCCACAUCUACGAAUUCGUACUCAUUAGAGAGGUUAUCCGCUCACCGAGAUCGGAAGAGCACACGU
B4: target 1 U10A,G17U (mixed)
RNA 1: B1 RNA 1
RNA 2: GGGAAUGGAUCCACAUCUACGAAUUCGUACCAUAUAGAGGUAAUCCGCUCACCGAGAUCGGAAGAGCACACGU
B5: target 1 insU 3' of 21,insA 3' of 12 (mixed)
RNA 1: B1 RNA 1
RNA 2: B1 RNA 2 with A32U, U33A, A34U, U42A, A44U, U45A, C46U, A48C
B6: target 1 insC 3' of 10,insU 3' of 4 (mixed)
RNA 1: B1 RNA 1
RNA 2: GGGAAUGGAUCCACAUCUACGAAUUCGUACCAUAGAGAGGUUCAUCCGCUUCACCGAGAUCGGAAGAGCACACGU
B7: target 1 insU 3' of 7,insC 3' of 3 (mixed)
RNA 1: B1 RNA 1
RNA 2: B6 RNA 2 with C43A, A44U, U45C, C46U, U51C
B8: target 1 insA 3' of 10,insA 3' of 10 (mixed)
RNA 1: B1 RNA 1
RNA 2: B6 RNA 2 with C43A, U45A, C46U, G48C, C49G, U50C
B9: target 1 insC 3' of 15,insA 3' of 7 (mixed)
RNA 1: B1 RNA 1
RNA 2: B1 RNA 2 with A35G, G36A, A37G, G38C, C47A, A48C
B10: target 1 insG 3' of 3,insG 3' of 3 (mixed)
RNA 1: B1 RNA 1
RNA 2: B6 RNA 2 with C43A, A44U, U45C, C47G, G48C, C49U, U50G, U51G
B11: target 1 insU 3' of 14,insC 3' of 9 (mixed)
RNA 1: B1 RNA 1
RNA 2: B1 RNA 2 with A35G, G36A, A37G, G38A, A39U, U45C, C46U, A48C
B12: target 1 insC 3' of 22,insU 3' of 12 (mixed)
RNA 1: B1 RNA 1
RNA 2: B1 RNA 2 with A32C, U33A, A34U, A44U, U45A, C46U, A48C
B13: target 1 C6U,G13A (mixed)
RNA 1: B1 RNA 1
RNA 2: B4 RNA 2 with U35G, G39A, A42U, C46U
B14: target 1 insU 3' of 9,insU 3' of 4 (mixed)
RNA 1: B1 RNA 1
RNA 2: B6 RNA 2 with C43A, A44U
B15: target 1 C2A,A9G (mixed)
RNA 1: B1 RNA 1
RNA 2: B4 RNA 2 with U35G, A42U, A43G, C50A
B16: target 1 insA 3' of 17,insG 3' of 7 (mixed)
RNA 1: B1 RNA 1
RNA 2: B1 RNA 2 with A35G, G36A, C47G, A48C
B17: target 1 insC 3' of 22,insA 3' of 15 (mixed)
RNA 1: B1 RNA 1
RNA 2: B3 RNA 2 with U31C, U35A, A36G, G37A, A38G, G39A
B18: target 1 A1C,U8G (mixed)
RNA 1: B1 RNA 1
RNA 2: B4 RNA 2 with U35G, A42U, U44G, A51C
B19: target 1 U3G,C4U (mixed)
RNA 1: B1 RNA 1
RNA 2: B4 RNA 2 with U35G, A42U, C48U, U49G
B20: target 1 insG 3' of 11,insU 3' of 6 (mixed)
RNA 1: B1 RNA 1
RNA 2: B6 RNA 2 with U42G, C43U, G48U, C49G, U50C
B21: target 1 C4G,U19A (mixed)
RNA 1: B1 RNA 1
RNA 2: B4 RNA 2 with U33A, U35G, A42U, C48G
B22: target 1 insU 3' of 5,insU 3' of 2 (mixed)
RNA 1: B1 RNA 1
RNA 2: B6 RNA 2 with C43A, A44U, U45C, C47G, G48U, U51C, C52U
B23: target 1 insG 3' of 11,insA 3' of 5 (mixed)
RNA 1: B1 RNA 1
RNA 2: B6 RNA 2 with U42G, C43U, C49A, U50C
B24: target 1 U8C,U10G (mixed)
RNA 1: B1 RNA 1
RNA 2: B4 RNA 2 with U35G, A42G, U44C
B25: target 1 A1G,U8G (mixed)
RNA 1: B1 RNA 1
RNA 2: B4 RNA 2 with U35G, A42U, U44G, A51G
B26: target 1 insU 3' of 4,insU 3' of 4 (mixed)
RNA 1: B1 RNA 1
RNA 2: B6 RNA 2 with C43A, A44U, U45C, C47G, G48C, C49U
B27: target 1 U11C,C22A (mixed)
RNA 1: B1 RNA 1
RNA 2: B4 RNA 2 with C30A, U35G, U41C, A42U
B28: target 1 C7A,A14U (mixed)
RNA 1: B1 RNA 1
RNA 2: B4 RNA 2 with U35G, A38U, A42U, C45A
B29: target 1 insC 3' of 14,insC 3' of 10 (mixed)
RNA 1: B1 RNA 1
RNA 2: B1 RNA 2 with A35G, G36A, A37G, G38A, A39C, A44C, U45A, C46U, A48C
B30: target 1 C4A,A9C (mixed)
RNA 1: B1 RNA 1
RNA 2: B4 RNA 2 with U35G, A42U, A43C, C48A
B31: target 1 U11G,G15A (mixed)
RNA 1: B1 RNA 1
RNA 2: B4 RNA 2 with U35G, G37A, U41G, A42U
B32: target 1 insU 3' of 6,insA 3' of 3 (mixed)
RNA 1: B1 RNA 1
RNA 2: B6 RNA 2 with C43A, A44U, U45C, C47U, U51A

The data set addresses T1, EsCas13d, nuclease-dead (Eubacterium siraeum, UniProt B0MS50, R295A;H300A;R849A;H854A).
T1 sequence: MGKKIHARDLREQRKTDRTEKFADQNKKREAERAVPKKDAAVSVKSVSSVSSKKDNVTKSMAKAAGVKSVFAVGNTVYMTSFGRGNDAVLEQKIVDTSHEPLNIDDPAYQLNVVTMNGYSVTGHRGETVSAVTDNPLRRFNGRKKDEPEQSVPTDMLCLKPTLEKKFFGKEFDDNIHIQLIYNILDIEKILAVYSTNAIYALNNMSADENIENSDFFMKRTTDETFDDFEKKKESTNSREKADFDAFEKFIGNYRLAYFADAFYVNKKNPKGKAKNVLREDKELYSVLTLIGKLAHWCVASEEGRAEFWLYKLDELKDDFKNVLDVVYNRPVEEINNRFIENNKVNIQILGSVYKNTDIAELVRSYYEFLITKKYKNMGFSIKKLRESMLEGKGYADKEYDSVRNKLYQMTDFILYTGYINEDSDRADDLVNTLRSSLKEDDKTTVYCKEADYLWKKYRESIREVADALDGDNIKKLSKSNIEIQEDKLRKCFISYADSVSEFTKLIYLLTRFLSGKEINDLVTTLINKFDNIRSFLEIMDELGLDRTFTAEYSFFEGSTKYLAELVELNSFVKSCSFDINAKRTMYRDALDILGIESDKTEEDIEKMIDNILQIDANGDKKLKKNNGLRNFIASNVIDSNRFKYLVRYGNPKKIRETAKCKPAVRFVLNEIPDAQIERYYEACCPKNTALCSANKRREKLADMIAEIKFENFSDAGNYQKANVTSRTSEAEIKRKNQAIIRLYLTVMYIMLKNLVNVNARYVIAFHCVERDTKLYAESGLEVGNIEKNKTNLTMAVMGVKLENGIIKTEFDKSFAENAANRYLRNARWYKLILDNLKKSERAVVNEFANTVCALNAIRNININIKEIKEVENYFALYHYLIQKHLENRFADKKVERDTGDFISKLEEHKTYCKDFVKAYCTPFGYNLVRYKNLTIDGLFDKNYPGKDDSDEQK
Kind of data set: crRNA (strand 1, pre-loaded); Mg2+; 40 mM Tris-HCl pH 7.5, 150 mM NaCl, 6 mM MgCl2, 1 mM DTT, 0.1% Tween-20, 0.2 mg/ml BSA; 25 C; 10 min per concentration, then washed. Particulars: tags: His6-TwinStrep-SUMO cleaved; N-terminal SNAP kept (SNAP-Surface 488); label: 3' end held by stalled T7 RNA polymerase.
What is called Kd is the concentration at which binding is half-saturated. The molecule B1 gave a Kd of 23.2 ± 0.9 nM. B2 returned a Kd of 29.6 ± 2.1 nM. The molecule B3 returned a Kd of 63 ± 6 nM. Turning to B4, the affinity, expressed as Kd, was 37.2 ± 3.2 nM. In the case of B5, the Kd was determined as 63 ± 9 nM. Compared with the last molecule, the Kd is about 1.7-fold higher.

For the molecule B6, binding was characterised by a dissociation constant (Kd) of 12.7 ± 1.1 nM.

The molecule B7 showed a Kd of 15.6 ± 0.7 nM. Take B8: the Kd turned out to be 7.81 ± 0.3 nM.

The molecule B9 had a Kd of 12.6 ± 1 nM.

B10 registered a Kd of 5.5 ± 0.5 nM. In the case of B11 it was 46 ± 4 nM.

In turn, B12 returned a Kd of 16.8 ± 1.2 nM. With B13 the figure was 9 ± 1.1 nM; with B14, 14.3 ± 1.2 nM; with B15, 11.7 ± 0.9 nM.

In turn, B16 yielded a Kd of 11.5 ± 0.6 nM.

In turn, B17 displayed a Kd of 10.9 ± 0.8 nM. For the molecule B18, binding was put at a Kd of 22.4 ± 1.7 nM.

In turn, B19 showed a Kd of 7.2 ± 0.6 nM.

Molecule B20 came in with a Kd of 62 ± 8 nM. For B21, binding was put at a Kd of 51 ± 18 nM. B22 returned a Kd of 14.8 ± 1.3 nM. Molecule B23 displayed a dissociation constant (Kd) of 26.5 ± 2.9 nM. Compared with the last molecule, the Kd is about 1.8-fold higher. With B24 the figure was 13.5 ± 0.9 nM.

B25 gave a Kd of 24.5 ± 1.8 nM. For B26, the Kd was 9.4 ± 0.5 nM. In turn, B27 showed a dissociation constant Kd of 21.3 ± 1.5 nM. The molecule B28 showed a dissociation constant (Kd) of 39 ± 3.5 nM. As to B29, the Kd was found to be 55 ± 22 nM. B30 registered a Kd of 7.1 ± 0.7 nM. B31 yielded an equilibrium dissociation constant (Kd) of 59 ± 7 nM. Against the preceding molecule, the Kd is about 8.3-fold higher. For B32, binding was characterised by a dissociation constant (Kd) of 8.07 ± 0.3 nM.
